Measurements from patent US5612455, “Nuclear factors and binding assay” (Tularik, Inc.).

Tests used:
[1] = target: T1, NFAT3 full length (Homo sapiens) (UniProt Q14934); experiment: cell_activity; conditions: HepG2 cells; COS cells 50-fold independent of PMA and ionomycin
T1 sequence: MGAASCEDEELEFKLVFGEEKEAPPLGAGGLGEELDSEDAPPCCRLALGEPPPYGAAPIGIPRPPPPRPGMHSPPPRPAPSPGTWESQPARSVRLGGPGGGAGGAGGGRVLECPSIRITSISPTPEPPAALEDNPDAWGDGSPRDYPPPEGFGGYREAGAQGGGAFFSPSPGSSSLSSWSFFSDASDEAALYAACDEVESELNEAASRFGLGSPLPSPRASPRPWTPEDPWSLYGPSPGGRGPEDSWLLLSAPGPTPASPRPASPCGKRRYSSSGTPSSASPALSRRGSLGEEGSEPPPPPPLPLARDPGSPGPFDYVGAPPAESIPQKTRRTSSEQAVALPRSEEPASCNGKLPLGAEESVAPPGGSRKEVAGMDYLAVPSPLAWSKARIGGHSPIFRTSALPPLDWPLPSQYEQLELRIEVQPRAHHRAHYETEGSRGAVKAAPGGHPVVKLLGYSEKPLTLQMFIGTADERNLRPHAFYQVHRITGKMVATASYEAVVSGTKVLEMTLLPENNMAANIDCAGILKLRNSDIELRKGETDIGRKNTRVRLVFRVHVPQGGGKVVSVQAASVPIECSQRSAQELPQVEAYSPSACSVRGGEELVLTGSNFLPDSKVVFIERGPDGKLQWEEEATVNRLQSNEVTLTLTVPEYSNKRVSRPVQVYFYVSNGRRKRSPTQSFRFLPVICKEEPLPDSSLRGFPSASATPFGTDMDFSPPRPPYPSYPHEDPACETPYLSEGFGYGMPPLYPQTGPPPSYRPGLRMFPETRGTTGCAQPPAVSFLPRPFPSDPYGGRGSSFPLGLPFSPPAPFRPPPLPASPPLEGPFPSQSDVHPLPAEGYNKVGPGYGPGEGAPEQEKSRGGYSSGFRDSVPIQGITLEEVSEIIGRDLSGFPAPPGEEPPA

NFAT4 rel domain [2] = target: T2, NFAT4 rel domain (Homo sapiens, UniProt Q12968 SEQ:393-708); experiment: EMSA; binding not detectable; core only printed; conditions: tags: N-terminal 8 aa heart muscle kinase site (pT7-HMK), E. coli
T2 sequence: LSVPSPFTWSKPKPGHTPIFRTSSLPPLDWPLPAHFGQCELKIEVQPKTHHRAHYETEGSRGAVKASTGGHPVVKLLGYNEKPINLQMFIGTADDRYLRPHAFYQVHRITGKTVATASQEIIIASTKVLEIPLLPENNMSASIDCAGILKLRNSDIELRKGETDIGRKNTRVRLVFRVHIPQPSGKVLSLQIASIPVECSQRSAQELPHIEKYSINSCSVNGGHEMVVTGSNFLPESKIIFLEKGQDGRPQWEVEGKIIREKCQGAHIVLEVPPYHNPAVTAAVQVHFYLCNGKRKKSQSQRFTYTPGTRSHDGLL

[3] = target: NFAT4 rel domain + c-Jun/Fra-1 (Homo sapiens, UniProt Q12968;P05412;P15407 Q12968:393-708,P05412:1-331,P15407:1-271); experiment: EMSA; highly cooperative; NFAT4 alone does not bind; jun homodimers less effective; exact EMSA probe not stated; conditions: tags: NFAT4 HMK site
[4] = target: NFATc rel domain + c-Jun/Fra-1 (Homo sapiens, UniProt O95644-2;P05412;P15407 O95644-2:408-716,P05412:1-331,P15407:1-271); experiment: EMSA; highly cooperative; jun homodimers less effective; exact EMSA probe not stated; conditions: tags: NFATc HMK site
[5] = target: NFAT3 rel domain + c-Jun/Fra-1 (Homo sapiens, UniProt Q14934;P05412;P15407 Q14934:400-744,P05412:1-331,P15407:1-271); experiment: as above; conditions: tags: NFAT3 HMK site
[6] = target: NFATp rel domain + c-Jun/Fra-1 (Homo sapiens, UniProt Q13469;P05412;P15407 Q13469:392-744,P05412:1-331,P15407:1-271); experiment: EMSA; highly cooperative; similar affinity for all four NFATs; jun homodimers less effective; exact EMSA probe not stated; conditions: tags: NFATp HMK site
[7] = target: T3, NFATp rel domain (353 aa, homologous to murine NFATp 185-537) (Homo sapiens, UniProt Q13469 SEQ:390-742); experiment: EMSA; probe length not stated, core SEQ 15; affinity similar to NFATc and NFAT3; 50 mM KCl, RT; also purified on SEQ 17 affinity resin; conditions: tags: N-terminal 8 aa heart muscle kinase site (pT7-HMK), E. coli
T3 sequence: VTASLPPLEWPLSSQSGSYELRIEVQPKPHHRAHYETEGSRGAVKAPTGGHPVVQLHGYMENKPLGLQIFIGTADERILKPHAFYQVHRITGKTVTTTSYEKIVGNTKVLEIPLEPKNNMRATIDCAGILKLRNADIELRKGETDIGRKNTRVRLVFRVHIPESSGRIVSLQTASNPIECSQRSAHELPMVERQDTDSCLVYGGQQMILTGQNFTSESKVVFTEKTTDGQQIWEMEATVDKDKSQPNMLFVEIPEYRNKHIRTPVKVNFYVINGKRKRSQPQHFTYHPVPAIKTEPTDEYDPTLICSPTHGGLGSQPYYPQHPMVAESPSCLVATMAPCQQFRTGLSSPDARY

NFAT3 rel domain = target: T4, NFAT3 rel domain (Homo sapiens, UniProt Q14934 SEQ:400-744); experiment: EMSA; probe length not stated, core SEQ 15; affinity similar to NFATp and NFATc; also purified on SEQ 17 resin; conditions: tags: N-terminal 8 aa heart muscle kinase site (pT7-HMK), E. coli
T4 sequence: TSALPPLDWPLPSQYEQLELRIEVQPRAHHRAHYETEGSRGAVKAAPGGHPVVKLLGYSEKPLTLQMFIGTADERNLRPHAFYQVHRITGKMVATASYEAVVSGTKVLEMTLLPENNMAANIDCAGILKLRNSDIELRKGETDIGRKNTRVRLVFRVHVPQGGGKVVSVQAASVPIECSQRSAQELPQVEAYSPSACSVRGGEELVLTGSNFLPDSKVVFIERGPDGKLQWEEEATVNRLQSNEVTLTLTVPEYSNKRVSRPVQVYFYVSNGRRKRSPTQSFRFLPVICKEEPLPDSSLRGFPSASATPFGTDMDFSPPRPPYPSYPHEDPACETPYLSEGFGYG

[8] = target: T5, NFATc rel domain (NFATc-309) (Homo sapiens, UniProt O95644 SEQ:408-716); experiment: EMSA; probe length not stated, core SEQ 15; affinity similar to NFATp and NFAT3; also purified on SEQ 17 resin; conditions: tags: N-terminal 8 aa heart muscle kinase site (pT7-HMK), E. coli
T5 sequence: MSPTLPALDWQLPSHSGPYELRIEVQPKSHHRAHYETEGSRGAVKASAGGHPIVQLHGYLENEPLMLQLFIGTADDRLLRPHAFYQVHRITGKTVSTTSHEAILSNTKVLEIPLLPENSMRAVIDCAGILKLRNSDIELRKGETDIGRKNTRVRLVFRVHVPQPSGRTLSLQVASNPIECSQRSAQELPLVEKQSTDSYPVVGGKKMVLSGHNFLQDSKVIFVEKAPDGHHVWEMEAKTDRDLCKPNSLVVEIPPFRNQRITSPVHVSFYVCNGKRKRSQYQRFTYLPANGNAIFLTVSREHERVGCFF

NFAT4 rel domain [9] = target: T2, NFAT4 rel domain; experiment: EMSA; probe length not stated, core SEQ 15; also purified on SEQ 17 resin; conditions: tags: N-terminal 8 aa heart muscle kinase site (pT7-HMK), E. coli

Chain of NFAT3 rel domain + c-Jun/Fra-1 (P05412 whole entry, chain 2 of 2, the tested form may be a part): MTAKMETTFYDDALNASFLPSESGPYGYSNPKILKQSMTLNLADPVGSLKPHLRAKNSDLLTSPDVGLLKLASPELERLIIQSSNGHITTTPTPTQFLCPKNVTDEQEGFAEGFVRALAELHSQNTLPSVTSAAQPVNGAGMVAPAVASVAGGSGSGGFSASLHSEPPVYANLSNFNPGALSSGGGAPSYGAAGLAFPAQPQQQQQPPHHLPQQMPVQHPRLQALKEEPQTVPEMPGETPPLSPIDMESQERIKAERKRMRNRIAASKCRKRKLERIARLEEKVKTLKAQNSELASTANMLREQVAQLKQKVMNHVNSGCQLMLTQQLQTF
Chain of NFAT3 rel domain + c-Jun/Fra-1 (P15407 whole entry, chain 3 of 2, the tested form may be a part): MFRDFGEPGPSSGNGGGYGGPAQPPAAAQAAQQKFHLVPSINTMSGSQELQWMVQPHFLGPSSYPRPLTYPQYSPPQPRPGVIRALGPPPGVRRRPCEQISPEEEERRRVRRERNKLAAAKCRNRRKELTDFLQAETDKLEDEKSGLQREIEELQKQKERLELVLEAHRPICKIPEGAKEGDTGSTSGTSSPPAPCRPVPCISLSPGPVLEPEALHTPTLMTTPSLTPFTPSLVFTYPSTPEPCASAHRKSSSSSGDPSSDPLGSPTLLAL
Chain of NFAT4 rel domain + c-Jun/Fra-1 (P05412 whole entry, chain 2 of 2, the tested form may be a part): as the sequence (P05412 whole entry, chain 2 of 2, the tested form may be a part) above
Chain of NFAT4 rel domain + c-Jun/Fra-1 (P15407 whole entry, chain 3 of 2, the tested form may be a part): as the sequence (P15407 whole entry, chain 3 of 2, the tested form may be a part) above
Chain of NFATc rel domain + c-Jun/Fra-1 (P05412 whole entry, chain 2 of 2, the tested form may be a part): as the sequence (P05412 whole entry, chain 2 of 2, the tested form may be a part) above
Chain of NFATc rel domain + c-Jun/Fra-1 (P15407 whole entry, chain 3 of 2, the tested form may be a part): as the sequence (P15407 whole entry, chain 3 of 2, the tested form may be a part) above
Chain of NFATp rel domain + c-Jun/Fra-1 (Q13469 392-744, chain 1 of 3): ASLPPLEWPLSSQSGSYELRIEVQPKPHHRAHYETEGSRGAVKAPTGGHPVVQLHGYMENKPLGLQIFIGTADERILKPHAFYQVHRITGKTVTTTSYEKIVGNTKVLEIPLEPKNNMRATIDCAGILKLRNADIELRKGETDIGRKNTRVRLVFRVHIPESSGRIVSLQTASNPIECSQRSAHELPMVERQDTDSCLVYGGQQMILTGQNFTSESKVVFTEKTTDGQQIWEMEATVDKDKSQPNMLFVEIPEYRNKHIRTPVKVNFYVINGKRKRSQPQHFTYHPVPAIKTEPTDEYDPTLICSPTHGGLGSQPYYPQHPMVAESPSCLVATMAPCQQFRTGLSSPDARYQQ
Chain of NFATp rel domain + c-Jun/Fra-1 (P05412 whole entry, chain 2 of 3, the tested form may be a part): as the sequence (P05412 whole entry, chain 2 of 2, the tested form may be a part) above
Chain of NFATp rel domain + c-Jun/Fra-1 (P15407 whole entry, chain 3 of 3, the tested form may be a part): as the sequence (P15407 whole entry, chain 3 of 2, the tested form may be a part) above

“3x antigen response element (-286 to -257) tk reporter” was tested, and the activity (fold activation) [1] was 140.

B1: IL-2 promoter NFAT site (distal antigen response element) (dsDNA)
DNA 1: GGAAAAACTG
DNA 2: CAGTTTTTCC
B1: no binding (NFAT4 rel domain [2]).

B2: IL-2 NFAT/AP-1 composite element (dsDNA)
DNA 1: GGAGGAAAAACTGTTTCATACAGAAGGCGT
DNA 2: ACGCCTTCTGTATGAAACAGTTTTTCCTCC
B2: binds [3]; binds [4]; binds [5]. B2: binds [6].

B3: IL-4 promoter NFAT site (dsDNA)
DNA 1: TACATTGGAAAATTTTATTACAC
DNA 2: GTGTAATAAAATTTTCCAATGTA
B3: binds [7]; binds (NFAT3 rel domain); binds [8]. For the same molecule, the binding signal (NFAT4 rel domain [9]) was > 10 fold lower affinity than NFATp, NFATc, NFAT3.
